# Assay: soluble on expression in E. coli; label from the status in PepcDB or PDB records
row,Sequence,soluble on expression in E. coli
1,MGSDKIHHHHHHMEQTTQTQLVEIQQVVLRMSKYFVAFCEEHNLTCYFCGGGCIGAIRSQGFIPWDDDLDFFMPRPDYEKLKVLWPKYADTECYPLLVASKTYNDHNSFMTIRDAQTTFIKTYQDGLAIPHGIPIDIFPLDGAPKGNFQRKKQKIWALIYALFCSQVVPEKHGGILATGSRVLLNIFPSKKVRYHIWRFAEKRMTKYSFGSTPYVTELCVGPRYMGNIYHLEDFKSAIFVPFEDTKMPIPVGYKRYLTEVFGDYMQLPPEEDRQPHHEALIVDTKKSYTEYLKK,not soluble
2,MGSDKIHHHHHHMMNQFFEPPRVEALHVQNYRALQNVRLDSITPLTVLLGPNGSGKSTLVDVFAFLSECFGEGLRKAWDRRGRFRELRSRDSVGPIVIELQYREKPGTPLITYHLEIDEKDRGPVVKREFLRWKRTHPGAPFYFLDYREGVGRVITGEQPESQDKRIEKPLSGPDVLAVNTLGQLAENPRVIALRAFITSWHLSYLSADAARGNPEAGAEERLSQTGDNLANVIQYLGEEHPERLNKIFETLKRRVPRIEKVTSRPLDDGRLLLQVKDAPFSSPVLARFASDGTLKMLAYLILLYDPEPPQLIGIEEPENYLHPRLLPELAEECDMASERTQLIVTTHSPFFIDRLRPEQVRVLYRGADGYTRAKRVADMRGIGEFLEAGASLGDLWMEGHFDVGDPLAGEEGA,not soluble
3,MGSDKIHHHHHHMEWLEQLLGKEWSLVPAGGVTGDAYIAQNGQQKLFLKRNTSPFLAVLSAEGIVPKLLWTRRVTNGDVISAQKWLPGQKLEPEDMKLERVAKLLKKIHSSKALVQMIQRLGKQPLHAQELLQQLQLVLRGDIRDEETIQQGLQYLMDSLKDIEYNEFVVCHCDVNHNNWLLSDEDELFLIDWDGAVIADPALDLGMLLYWYIPRQEWSEWLGYYDIEMDESLLKRMRWYVIAQTILSIQWHTTKKQQAEAEYWHQYLQQLLASE,not soluble
4,VVQGTVKPHASFNSREDAETLRKAMKGIGTDEKSITHILATRSNAQRQQIKTDYTTLFGKHLEDELKSELSGNYEAAALALLRKPDEFLAEQLHAAMKGLGTDKNALIDILCTQSNAQIHAIKAAFKLLYKEDLEKEIISETSGNFQRLLVSMLQGGRKEDEPVNAAHAAEDAAAIYQAGEGQIGTDESRFNAVLATRSYPQLHQIFHEYSKISNKTILQAIENEFSGDIKNGLLAIVKSVENRFAYFAERLHHAMKGLGTSDKTLIRILVSRSEIDLANIKETFQAMYGKSLYEFIADDCSGDYKDLLLQITGH,soluble
5,MGSDKIHHHHHHMKKMKIGTQNQAFFPENILEKFRYIKEMGFDGFEIDGKLLVNNIEEVKAAIKETGLPVTTACGGYDGWIGDFIEERRLNGLKQIERILEALAEVGGKGIVVPAAWGMFTFRLPPMTSPRSLDGDRKMVSDSLRVLEQVAARTGTVVYLEPLNRYQDHMINTLADARRYIVENDLKHVQIIGDFYHMNIEEDNLAQALHDNRDLLGHVHIADNHRYQPGSGTLDFHALFEQLRADNYQGYVVYEGRIRAEDPAQAYRDSLAWLRTC,not soluble
6,SNAEERLKMSTTTSTQDSGLLKVLLPPFEKKNNVKVDVIAVGTGQALKLGEAGDVDVVFVHARKLEDKFVADGFGVNRKDVMYNDFVIVGPKNDPAGIAKAKTAAEALKLLATKGATFISRGDKSGTHTKELDLWKSAGVDPKGNWYVEAGQGMGPVITMATERRAYTLTDRGTYNAFKGAKTDLVILFQGEKGLFNPYGIMAVNPKKFPHVKYDLAMKLIDYVTGPEGLKIISDY,soluble
7,MLNKRHLPSIAALQCFEAVTRHLSFTRAAEELNLTQSAVSKQVAQLEELVQHLLFQRVRRRLQLTPAGALYLAEVRKILTQIEMSTHFLRSYGGETEVLRVSTPSTFGARWLVPRLKGWRLRHPHIHLDLINEQESDDLLKGRCDVSFYFGQAAIPGAESVKLFGEELVPVCSPDSLPAEPFTDPTQLSELVLLQNAFRPQAWHEWFESQGYHTDHSYHGPRFETFYMCIRAAQVGCGVALLPRFLVEEELAEGKLVIAWDYALPSTNSAYYLSYPEHTADVPKIRVFLQWMLEQLDQPAR,not soluble
8,MTIASITLTNNRLEWQSLLPNTTPYEALFATASQLEPVAFSAYQPRLENGMTLFCHPQSQPRFMLIKAQESTDYLALIAQAVKALQPEASNLLGGDYLVHGHHVTWQSAQHGDERFAAQSTCLYQEWVEPEQLFGCVRMYKDQITLQPGLVHQVNGGVLILSVRALQAQPLMWLRLKQMIVQQRFDWLSTDETRPLPVHIPSMPLDLRLILVGDRLGLADFHDMEPELGDLAIYGEFEAELPLVDIEGMALWCGYINTLLQQKQLPALSADAWPVLFRQAVRYSGDQGSLPLCPQWLTQQLAEAALYAENDTISANALEAALNARNWRQNYLAERMQDEIELGQILVETEGHVVGQINALSVLEYPGHPHAFGEPARISCVVHLGDGEFVDVERKAELGGNIHAKGMMIMQAFLMSELELDQPLPFSASIVFEQSYGEVDGDSASLAELCALVSALSQQPINQQIAVTGSVDQFGNVQPIGGVNEKIEGFFETCQRRGLTGNQGVILPTTNVRHLCLNQAVVEAVQKGQFHLWAVDTVAEALPLLTGVTYDDEQQPSLLGAIQERIAQINPQDKRRWPWPLRWLNWFNQG,soluble
9,MFNYSGLNEECGVFGIWNHPEAAQLTYMGLHSLQHRGQEGAGIVVSDQNELKGERGLGLLTEAIKDDQMERLKGYQHAIGHVRYATSGNKGIENIQPFLYHFYDMSVGICHNGNLINAKSLRQNLEKQGAIFHSSSDTEVIMHLIRRSKAPTFEEALKESLRKVKGGFTFAILTKDALYGAVDPNAIRPLVVGKMKDGTYILASETCAIDVLGAEFVQDIHAGEYVVINDKGITVKSYTHHTTTAISAMEYIYFARPDSTIAGKNVHAVRKASGKKLAQESPVNADMVIGVPNSSLSAASGYAEEIGLPYEMGLVKNQYVARTFIQPTQELREQGVRVKLSAVKDIVDGKNIILVDDSIVRGTTIRRIVKMLKDSGANKVHVRIASPEFMFPSFYGIDVSTTAELISASKSPEEIKDYIGADSLAYLSVDGLIESIGLDYDAPYSGLCVESFTGDYPAGLYDYEANYKAHLSHRQKQYISKNKHFFDSEGNLNV,not soluble
10,MARDEVRRILPADIKREVLIKDENAETNPDWGFPPEKRPIEMHIQFGVINLDKPPGPTSHEVVAWIKKILNLEKAGHGGTLDPKVSGVLPVALEKATRVVQALLPAGKEYVALMHLHGDVPEDKIIQVMKEFEGEIIQRPPLRSAVKRRLRTRKVYYIEVLEIEGRDVLFRVGVEAGTYIRSLIHHIGLALGVGAHMSELRRTRSGPFKEDETLITLHDLVDYYYFWKEDGIEEYFRKAIQPMEKAVEHLPKVWIKDSAVAAVTHGADLAVPGIAKLHAGIKRGDLVAIMTLKDELVALGKAMMTSQEMLEKTKGIAVDVEKVFMPRDWYPKLWEKRDRSHHHHHH,soluble
11,GPGSMPPSHTLLNRRGQQFSSRMHVGAKRKRVEDNASPVSSLYRPLCRGLSTRGSGASAVSCPSVVVILEKAGLLLGREGVVDAYDRAGSTTIANASLRDVRPDIVHQCLLALFDSGLAQEQRQLRVFINLFSRGGRTVEVSPSLRPPRTLRRFKGLVAALLRDGVVRSQDGEVLLQVLPGSLAPVLPYGAEVIGLTNAHSAPVRTPTQLARAALENPVDDKLQGGLKGVAGFFCICCSEDGSLDGVDYVTQQVCLSAYPMTAHVMCSRLCEGFSRAAATGNR,not soluble
12,MFWKFLVSGLVGSACSAYHRGPTNVSLALDPPTLSIIMDPSKDIVPIRAVIVGGGYAGSKTAYQLDSMFAVTHIDEKNFYELTNDIIPIITNPWKEDVNPKACRRMMVLHRYYLKRSNVVTGTVIGVDAKQVYLRDGRTVPYDLLFLATGERKPFPFQTRERTISGRVQELKRFNEFLQSCKKVAVVGGGPVGTSLAHDLASTRPDLQVHLFHQRAELLPRLPGVCRRHAQEKLLSNPNLHLHLLTRVTDIDGVVLPSNGDKAASSSSPARHSCAGQLVNPPTSNAAVAESSLTLATTNAPWWRSLLNTVWPRRGVVPDQYSVHYDTLQSKVQQQPSILQQVYYGKRDEVAECGVVQARGVEEGFDYVFALTGDTPRPIQCDELEGRSRKLPNILREHETRDGHYRVSTLMQFLDHPNIFGVGRCTNLPVMRGYGSSDIETRTLFRELNSVISNPTTMFLHSRDGVQLAHMRIPRIHVRLGVDDAVGCTPWSGGMTGVSSVHEFMQDRSYLLREFQKPVFYKQQDQAKVKQRMSQWMEEEITDIVDFSHC,not soluble
13,MGSDKIHHHHHHMLEQKINVDNTALFEQLWGWTNELREKIDARFELHSDPSTENFKKYSALIGEAHGSVNTFSGPEIDWLVHSWLREPKSGFCNMHLTVWLKSQIHVPHLAIVFATVPELFFFIDYVSRTDLFTDLDYLDRYYEPVNQTYLAFLKDSRFQQYISKTLYIRQVQSHTSLCYTSPVTEETLARIHTLAHEMIDRWLGWVDEAEPVAESERDALSERDLFVRRTVAERDPDNQIAVRLFGAEMTDKLVRSLWGGDRIL,not soluble
14,AIAHGVEFAPLERQHGSQVLALLRGTLLVPLPRLHQRLEEAYERDARLGLAQVALCRLAGNAEKVVGVLLARVATRRTCCAQVYIDAVAVDAVFQGQGIGSRLLLRVLTPCLPDGLEVREVFLHTPLQATELVAFYRSCGFESDDEVIDNYYPRRWMPQAQALVLRWRPPTAAQHQHEERKGPQDADVS,soluble
15,MTEITHRTKTRPVKVGNLTIGGNNEVVVQSMTTTKTHDVEATVAEIKRLEEAGCQVVRVACPDMRAAEAIPAIKKQISIPLVVDIHFDYKLALKAIEGGADKIRINPGNIGKRHKVEAVVKAAKEKGIPIRIGVNAGSLEKRILDKYGYPTADGMVESALHHIKILEDLDFHDIIVSMKASDVNLAIEAYEKAAKAFDYPLHLGITESGTLFAGTVKSAAGLGAILNMGIGNTVRVSLSADPVEEVKVARELLKSFGLASNAATLISCPTCGRIEIDLISIANEMEEYISKIRAPIKVAVLGCAVNGPGEAREADIGIAGARGEGLLFRKGEIVRKVPEETMVEELKKEIDKIAEEYFAKQKELEKA,not soluble
16,MAIMRVNPTRMELTRLKKRLQVARRGHKLLKDKLDELMKQFLDLVRKNKELREKVEEMLMKAHQDFLIARAVMSSEGLEAALMLPKQSISLDVSTQNIMSVEVPVLKFTTSSSDESDIYPYGFASTSGELDGAILTLSKVLPYMLELAQMEKSSQLLAQEIEKTRRRVNALEYVMIPQLTETIKYISMKLDENERGNITRLMKVKDMMLEQAHNFKEKLNEA,soluble
17,AESGFRQHITANGESGFKAEPDRYHLYLSYACPWACRTLIMRKLKGLEKIISVSFSDPVMGKNGWSYGESGNETADHINHIHYLKELYLVARKDYTGRVTVPVLWDKKKKTIVNNESSEIMRMLNSEFNAFSSTDHDYYPKQWRQKIDEINQLVYENINN,not soluble
18,ETIELYKSSVPSGKEAGKNALAITNQQLISALENAAKDNKTSQPQARSLTASDQVQITQSSDKVIGYITTSNLDIDNNNTFDVGKLNGDKSTSKIIVNATLKTLNKINTLQSEEGIILPHPQKYKSTDPQAVATVQGPSIIGVHANAKENAETQKFINW,not soluble
19,MHHHHHHSSGVDLGTENLYFQSMLPHSVLLEIQKELLDYKGVGISVLEMSHRSSDFAKIINNTENLVRELLAVPDNYKVIFLQGGGCGQFSAVPLNLIGLKAGRCADYVVTGAWSAKAAEEAKKFGTINIVHPKLGSYTKIPDPSTWNLNPDASYVYYCANETVHGVEFDFIPDVKGAVLVCDMSSNFLSKPVDVSKFGVIFAGAQKNVGSAGVTVVIVRDDLLGFALRECPSVLEYKVQAGNSSLYNTPPCFSIYVMGLVLEWIKNNGGAAAMEKLSSIKSQTIYEIIDNSQGFYVCPVEPQNRSKMNIPFRIGNAKGDDALEKRFLDKALELNMLSLKGHRSVGGIRASLYNAVTIEDVQKLAAFMKKFLEMHQL,soluble

# Reference: the DeepSol protein solubility set
